Key:
Type in all cases: cell-based
[1] = test system: endogenous genome targets (ACTB, HSP90AA1); experiment: Arrayed SSAP library screening, mKate knock-in assay (editing efficiency); details: average of HSP90 and ACTB, 3 days after transfection; for Editing Efficiency (Normalized, Average, two targets): fold over negative control (Flag_HA); for Editing Efficiency (Absolute, Average, two targets): percent of mKate knock-in
Protocol: Arrayed SSAP library screening on endogenous genome targets (ACTB. HSP90AA1) using mKate knock-in assay.
SSAP-encoding plasmids were purified and quantified.
(§1) Each SSAP encoding plasmid was tested in duplicate, including a negative control (same plasmid encoding Flag_HA which is not expected to promote gene editing). Transfections were in 96-well plates and transfection efficiency was estimated to be 50%.
(§2) Three days after transfection, mKate positive cells and cell viability were quantified across all replicates, along with positive (original RecT SSAP) and negative (Flag-HA control protein) controls. […] At the same time, the cell viability was measured by live cell counts via flow cytometry, to help quantify the fitness effect of SSAP on mammalian cells.
(§3) SSAP proteins are identified by Uniparc deposit number and SEQ ID NO. Alignment numbers correspond to SSAPs in FIGS. 58, 59, and 60.

mammalian cells = experiment: Arrayed SSAP library screening, cell viability by live cell counts via flow cytometry
Protocol: as §1, §2, §3

gene editing with Cas9 = experiment: Screen of 322 new SSAP proteins, gene editing activity with Cas9 (Table 5); parameters: Cas9 with SSAP activity: scale not given here
Method in brief: (§4)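 Synthetic SSAP candidates, identified computationally, were tested in editing screens using both Cas9 and dCas9.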

gene editing with dCas9 = experiment: Screen of 322 new SSAP proteins, gene editing activity with dCas9 (Table 5); parameters: dCas9 with SSAP activity: scale not given here
Method in brief: as §4

[2] = test system: gene editing with Cas9 and dCas9; experiment: Screen of 322 new SSAP proteins, activity across all experiments (Cas9 and dCas9, Table 5); parameters: scale not given here
Method in brief: as §4

| Molecule | Editing Efficiency (Normalized, Average, two targets) [1] | Editing Efficiency (Absolute, Average, two targets) [1] | Cell Viability (Average, two targets) (mammalian cells) | Cas9 with SSAP activity (gene editing with Cas9) | Cas9 with SSAP activity (normalized) (gene editing with Cas9; normalized) | dCas9 with SSAP activity (gene editing with dCas9) | dCas9 with SSAP activity (normalized) (gene editing with dCas9; normalized) | Activity across all experiments [2] |
| --- | --- | --- | --- | --- | --- | --- | --- | --- |
| SSAP_191: SEQ ID NO: 360 in b312 (Table 9 prints 354); Microbacterium sp. K41 (protein, listed as Microbacterium sp.) SKDLSTAAAAAKSQPTMKDLVEAQLPAIERQLGGAMNSDAFVRAVLSEIGKSPDLMNADPKTLLGGVMLAAQLRLEIGSGLGEFYLTPRKDRGRQICLPIIGYQGMIKLALRSEYVLNVQAFLVREGDDFTYGGNSERGMFYDWTPKDFEESRPWIGVVATAKMRGGGTTWVYLTRTQVIDRRPSYWASTPWKTNEDEMVKKTAVRALAKFLPKSTDLGRALEADEAKVQHLKGVDEVQVTRLDDDAETFVVQEQDPMSRTPEEQAEDEANR | 4.75 | 11.75 | 1.129 |  |  |  |  |  |
| SSAP_184: SEQ ID NO: 353; Streptomyces scabiei (protein, listed as Streptomyces scabiei) DADRMARIALTLIRKNPDLATCSGESFLGALMTCSQLGFEPGSPTQEAFIVPYKGEATFQLGYQGMVTLFYQHPMASSVKVETVRENDYFEHEEGLEEKLVHRPCKTGPRGKAIAYYSVARLINGGRTFKVMYPAEIEERREKLPSKNSPAWRNSYDEMAKKTVLRNHFKALPKSAELARAMAHDGTVRTDWQPDAIDVPPEYLSEPQRPELGTGSTQ | 5.689 | 14.075 | 0.7361 | −0.836 | −0.308 | −2.910 | −0.482 | −1.873 |
| SSAP_210: SEQ ID NO: 379; Rufibacter latericius (protein, listed as Rufibacter latericius) SNQLQVAREQVISAQKSFKNVPNNKLDFEREAGFAMQMIQSNPFLASMDANSIRNCIVNVALTGLTLNPVLKLAYLVPRKGKLILDPSYMGLINVLVTSGAAKKIEADVVCENDFFDYEKGTNGFIKHKPSLSSRGEIIAAYAIAHLPNGEVQFEIMNREELEKVRKSSEAAKKGSSPYDGWASEMMRKAPIRRLFKYLPKHNIPDQVINTLSLDEQNNGVDFSAQKQEAFKGKAADFFEDEPANTVDADYTDMSHEEADNELAA | 6.484 | 16.05 | 0.408 |  |  |  |  |  |
| SSAP_288: SEQ ID NO: 457; Clostridium thermobutyricum (protein, listed as Clostridium thermobutyricum) QSTGDIVFPQNYNYSNALKSAQLILAETVDRNKVPVLQSCSKPSICNALLDMVIQGLSPAKKQCYFVPYGGKLQLMKSYLGNIAATKRLKGVKDVFANVIYEGDVFEYKLNLNTGLIEIEKHEQKFENISKKILGAYAVVVRENQNNYVEVMNIEQIKNAWNQGAAKGNSQAHKNFAEEMAKKTVINRACKRFVNTSDDSDTLIESINRTNEYKEEDIIETTKSEVGEEIKENANTENLGLEDTEVVEAEVIENIEFEGDK | 3.832 | 9.4725 | 0.6836 |  |  |  |  |  |
| SSAP_152: SEQ ID NO: 321; Clostridiaceae bacterium (protein, listed as Clostridiaceae bacterium) SNLKKALKTNETKGNSVTVSKAYAMKQLMIKMKGEITSALPTNLSSERFEKVALTAFNSNPKLQKCDPRTFIAAMMQSAQLGLEPNTALGLAYLIPYEVKGINKVQFQIGYKGLLELANRSGKLKTLYAHEVRENDEFDIDYGLEQKLIHKPLLKGNRGNVIGYYAVYHLEPSGYNFVFMTYDEVLEHGKKYSKSFEGGVWEKEFDSMAKKTVIKKLLKYAPLSIEMQKAIVFDESVKGSIDSDMLLVDKEDESIEGSELN | 6.574 | 16.25 | 1.159 |  |  |  |  |  |
| SSAP_220: SEQ ID NO: 389; Amycolatopsis circi (protein, listed as Amycolatopsis circi) ISQTVTTAVAQQKDSSPAALVRKYRTDFATVLPSHIKPETWLRIATGALRRSPQLANAAKRNPSSLLVALLEAARKGLEPGTEQFYLVPRKGKNGPEVLGITGYQGEVELMYRAGAVSSVKVEVVREHDTFAYNPGEHDRPVHEIDWRADRGDLVLTYAYAVMRDGATSNVVVLSADDIAVILKKADGADSPFSPWQWNPKAMWLKSAARQLAKWVPTSAEYVRLPDVPLESLPPAKPLDLPRVDDVVDAEIVEDWPTAPDDTADGAR | 4.599 | 11.375 | 0.9152 |  |  |  |  |  |
| SSAP_190: SEQ ID NO: 359; Microbacterium laevaniformans OR221 (protein, Microbacterium laevaniformans, Microbacterium laevaniformans OR221) TDLSTVAAAAKQNPTMKDLVEAQLPAIERQLGGTMNSDAFVRAVLSEITKSPDLMQADPKTLLGGVMLAAQLRLEIGSGLGEFYLTPRKDHGRMICLPIVGFQGMVKLALRSEFVTNVQAFIVREGDDFTYGANAERGMFYDWTPKDFEEKRPMVGVVATARMKQGGTTWAYLTREQVEDRRPSYWQKTPWGSHPDEMAKKTAVRALAKYLPKATDLGRAIEADEQKVQHVKGLDEVTVTRLDDEPETVVVQETTDAWAATPVAEVQP | 5.26 | 13.025 | 1.044 |  |  |  |  |  |
| SSAP_192: SEQ ID NO: 361; Streptococcus pyogenes (protein, Streptococcus pyogenes) SDLSVAAAAAKTQPTMKDLVEAQLPAIERQLGGAMNSAAFVRAVLSEIGKSPDLMAADPKTLLGGVMLAAQLRLEIGSGLGEFYLTPRKERGRQICLPIIGYQGLIKLALRSEFVMNVQAFLVRQGDQFSYGANAERGMFYDWVPQDFEETRDWIGVVATARMRSGGTTWVYLTRTQVIDRRPSYWNSTPWKTNEDEMVKKTAVRALAKFLPKSTDLGRALEADEAKVQTLRGLDEVEVTRLDDEADTVVVQEQNPMSRTPEEQAEDAEAQR | 5.372 | 13.3 | 1.071 |  |  |  |  |  |
| SSAP_173: SEQ ID NO: 342; Tyzzerella nexilis (protein, listed as Tyzzerella nexilis) AGVKEELAKKAESTKGETKLTKSMSIADLIKAMEPEIKKALPEVITPERFTRMALSALNTTPKLRECTQMSFLAALMNAAQLGLEPNTPLGQAYLIPYNNKGVMECQFQIGYKGLIDLSYRNPQMQIISAQAVYENDDFSYELGLNPKLEHCPTLGERGEVRLFYGFFKLVNGGFGFEVMSKTAMDEYAKEYSKAFDSSFSPWKSNYIGMAKKTVIKQALKYAPLKTDFRKALSNDETIKTELSDDMSDIHGEEIWDVEYQEKTA | 4.674 | 11.55 | 0.8787 |  |  |  |  |  |

— patent publication US20250034594A1, “RNA-GUIDED GENOME RECOMBINEERING AT KILOBASE SCALE” (THE BOARD OF TRUSTEES OF THE LELAND STANFORD JUNIOR …, priority 2021, published 2025)
